Molecular target: SARS-CoV-2 receptor-binding domain (RBD) (SARS-CoV-2, UniProt P0DTC2)
Assay: BLI
Conditions: both partners purified

B1: CB6 (antibody, V domains shown)
VH: EVQLVESGGGLVQPGGSLRLSCAASGFTVSSNYMSWVRQAPGKGLEWVSVIYSGGSTFYADSVKGRFTISRDNSMNTLFLQMNSLRAEDTAVYYCARVLPMYGDYLDYWGQGTLVTVSS
VL: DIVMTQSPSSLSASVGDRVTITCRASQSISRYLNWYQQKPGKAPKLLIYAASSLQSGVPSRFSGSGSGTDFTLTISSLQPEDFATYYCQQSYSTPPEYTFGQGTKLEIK
- binding result: binds

Source: paper PMC8564274 (Signal Transduction and Targeted Therapy, 2021)
